Measured values: US20160067316A1, “Selective Sensitization of Cancer Cells to, and Selective Protection of Non-Cancer Cells from Genotoxic Therapies” (Board of Supervisors of Louisiana State University and …, priority 2014, published 2016)

Legend:
MT1-MMP catalytic domain = biological target: T1, MT1-MMP catalytic domain (Homo sapiens, UniProt P50281); assay: In vitro cleavage by MT1-MMP catalytic domain (anti-His immunoblot); format: biochemical; conditions: for sensitivity to MT1-MMP cleavage: incubated with recombinant MT1-MMP catalytic enzyme
T1 construct: reacted with the MT1-MMP catalytic domain (EMD Millipore) at 22° C; purchased Calbiochem / EMD Millipore
Procedure: FIG. 3 depicts anti-His immunoblotting of TAT-TLK1B or TAT-MS-TLK1B, reacted with the MT1-MMP catalytic domain (EMD Millipore) at 22° C., as a function of time. 1.5 μg TAT-TLK1B, TAT-MS-TLK1B or TAT-TL-MS-K was reacted with 0.02 mU MT1-MMP, catalytic domain (Calbiochem) in reaction buffer containing 50 mM Tris pH 7.5, 150 mM NaCl, 5 mM CaCl2. The reactions were incubated at 22° C. for the indicated times (10, 20, 30, 60, or 120 minutes). […] Although MT1-MMP has a preference for the preferred cleavage site motif, that preference is neither strict nor absolute. Thus other proteins will be cleaved as well; what is important is the relative sensitivity of MS-containing proteins to MT1-MMP cleavage.

rat salivary glands = conditions: delivered directly to rat salivary glands; preclinical, Sunavala-Dossabhoy 2012; cited from earlier work
[1] = system: HNSCC cells (cell line SCC40); assay: Protein transduction into SCC40 cells (anti-hemagglutinin immunoblot); format: cell-based; conditions: 40 μg protein, 6 hours after protein transduction
Procedure: HNSCC cells (cell line SCC40) were cultured on rat tail type I collagen plates in DMEM/0.1% BSA for 3 days before addition of 40 μg TAT-TLK1B or TAT-MS-TLK1B. Control cells (Untreated cells, Untx) were treated with an equal volume of OPTI-MEM™ reduced serum medium—a modification of Eagle's Minimum Essential Media, buffered with HEPES and sodium bicarbonate, and supplemented with hypoxanthine, thymidine, sodium pyruvate, L-glutamine, trace elements, and growth factors. FIG. 4A depicts the results of immunoblotting the respective cell lysates with anti-(MT1-MMP catalytic domain) antibody (Millipore). The arrow at 68 kD corresponds to pro-MT1-MMP. […] The 52 kD and 55 kD proteins were products of autocatalytic cleavage of MT1-MMP. […] Active MT1-MMP is membrane-bound, and is responsible for cleaving and activating pro-MMP-2 to active MMP-2. Active MT1-MMP can also undergo autocatalytic processing. The presence of a substrate such as TAT-MS-TLK1B or TAT-TL-MS-K will decrease the MT1-MMP autocatalysis. […] In other words, the observed decrease in MT1-MMP auto-cleavage is indirect evidence that the recombinant TAT-MS-fusion protein is being cleaved as designed.
FIG. 4B depicts results of immunoblotting the respective cell lysates with horseradish peroxidase-conjugated anti-hemagglutinin (Sigma) 6 hours after protein transduction. […]

histone H3 [2] = biological target: histone H3
histone H3 [3] = biological target: histone H3 (Homo sapiens, UniProt P68431); assay: Kinase activity by histone H3 Ser10 phosphorylation (immunoblot); format: biochemical; conditions: in vitro, kinase buffer at 30° C; data not shown
Procedure: In the next attempt, the MS was inserted 5′ to the kinase domain of TLK1B. The recombinant TAT-TL-MS-K protein was produced, purified, and the activity of the protein was analyzed in vitro. […] Activity of the TAT-TL-MS-K was monitored indirectly by evaluation of histone H3 Seri 0 phosphorylation. Recombinant TAT-TLK1B or TAT-TL-MS-K was reacted with histone H3 at ratios of 1:10, 1:5, or 1:1 in a kinase buffer at 30° C. Reactions were loaded onto SDS-PAGE gels, and immunoblotted against anti-Ser10 H3 (Millipore). […] The functional, MMP-sensitive TAT-TL-MS-K will be used to confirm transduction in normal and cancer cells, and the ability of TAT-TL-MS-K to sensitize cancer cells such as head and neck cancer cells to radiation.

Molecule: MT1-MMP expressed by HNSCC cell line SCC40
- MT1-MMP autoproteolytic products (52 kD and 55 kD) in SCC40 lysates, immunoblot (TAT-MS-TLK1B): The autoproteolytic products declined sharply in the presence of the TAT-MS-TLK1B

B1: TAT-TLK1B: SEQ ID NO: 2, TAT-TLK1B fusion protein without the MS cleavage site (protein)
chain: MHHHHHHSSGLVPRGSGMKETAAAKFERQHMDSPDLGTDDDDKAMAISDPNSSSVDKLGYGRKKRRQRRRGGSTMSGYPYDVPDYAGSMVKLAALESNKIQDLEKKEGRIDDLLRANCDLRRQIDEQQKLLEKYKERLNKCISMSKKLLIEKSTQEKLSSREKSMQDRLRLGHFTTVRHGASFTEQWTDGFAFQNLVKQQEWVNQQREDIERQRKLLAKRKPPTANNSQAPSTNSEPKQRKNKAVNGAENDPFVRPNLPQLLTLAEYHEQEEIFKLRLGHLKKEEAEIQAELERLERVRNLHIRELKRINNEDNSQFKDHPTLNERYLLLHLLGRGGFSEVYKAFDLYEQRYAAVKIHQLNKSWRDEKKENYHKHACREYRIHKELDHPRIVKLYDYFSLDTDTFCTVLEYCEGNDLDFYLKQHKLMSEKEARSIVMQIVNALRYLNEIKPPIIHYDLKPGNILLVDGTACGEIKITDFGLSKIMDDDSYGVDGMDLTSQGAGTYWYLPPECFVVGKEPPKISNKVDVWSVGVIFFQCLYGRKPFGHNQSQQDILQENTILKATEVQFPVKPVVSSEAKAFIRRCLAYRKEDRFDVHQLANDPYLLPHMRRSNSSGNLHMAGLTASPTPPSSSIITY
modifications: TAT-TLK1B fusion protein
- cleavage by MT1-MMP catalytic domain after 120 minutes (MT1-MMP catalytic domain; 1.5 μg protein, 0.02 mU MT1-MMP, 22° C, 120 minutes): still showed substantial activity
- sensitivity to MT1-MMP cleavage (MT1-MMP catalytic domain): also cleaved by the enzyme, although not as rapidly
- radiation-induced xerostomia (rat salivary glands): mitigate radiation-induced xerostomia
- transduction into SCC40 cancer cells [1]: efficiently transduced

B2: TAT-TLK-MS fusion protein (protein)
chain: MHHHHHHSSGLVPRGSGMKETAAAKFERQHMDSPDLGTDDDDKAMAISDPNSSSVDKLGYGRKKRRQRRRGGSTMSGYPYDVPDYAGSMVKLAALESNKIQDLEKKEGRIDDLLRANCDLRRQIDEQQKLLEKYKERLNKCISMSKKLLIEKSTQEKLSSREKSMQDRLRLGHFTTVRHGASFTEQWTDGFAFQNLVKQQEWVNQQREDIERQRKLLAKRKPPTANNSQAPSTNSEPKQRKNKAVNGAENDPFVRPNLPQLLTLAEYHEQEEIFKLRLGHLKKEEAEIQAELERLERVRNLHIRELKRINNEDNSQFKDHPTLNERYLLLHLLGRGGFSEVYKAFDLYEQRYAAVKIHQLNKSWRDEKKENYHKHACREYRIHKELDHPRIVKLYDYFSLDTDTFCTVLEYCEGNDLDFYLKQHKLMSEKEARSIVMQIVNALRYLNEIKPPIIHYDLKPGNILLVDGTACGEIKITDFGLSKIMDDDSYGVDGMDLTSQGAGTYWYLPPECFVVGKEPPKISNKVDVWSVGVIFFQCLYGRKPFGHNQSQQDILQENTILKATEVQFPVKGSVPLSLRSGTPVVSSEAKAFIRRCLAYRKEDRFDVHQLANDPYLLPHMRRSNSSGNLHMAGLTASPTPPSSSIITY
- phosphorylation of histone H3 Ser-10 (kinase activity) (histone H3 [2]): would not phosphorylate the TLK substrate, histone H3 Ser-10

B3: TAT-TLK-MS: SEQ ID NO: 3, fusion protein with MT1-MMP cleavage site in a presumptive loop towards the carboxy terminus (protein)
chain: B2 chain
modifications: TAT-TLK-MS fusion protein
- sensitivity to MT1-MMP cleavage (MT1-MMP catalytic domain): sensitive to cleavage
- kinase activity (phosphorylation of histone H3 Ser-10) (histone H3 [3]): would not phosphorylate the TLK substrate

B4: TAT-TL-MS-K fusion protein (protein)
chain: MHHHHHHSSGLVPRGSGMKETAAAKFERQHMDSPDLGTDDDDKAMAISDPNSSSVDKLGYGRKKRRQRRRGGSTMGGYPYDVPDYAGSMLKLAALESNKIQDLEKKEGRIDDLLRANCDLRRQIDEQQKLLEKYKERLNKCISMSKKLLIEKSTQEKLSSREKSMQDRLRLGHFTTVRHGASFTEQWTDGFAFQNLVKQQEWVNQQREDIERQRKLLAKRKPPTANNSQAPSTNSEPKQRKNKAVNGAENDPFVRPNLPQLLTLAEYHEQEEIFKLRLGHLKKEEAEIQAELERLERVRNLHIRELKRINNEDNSQFKAAAVPLSLRSGTSDHPTLNERYLLLHLLGRGGFSEVYKAFDLYEQRYAAVKIHQLNKSWRDEKKENYHKHACREYRIHKELDHPRIVKLYDYFSLDTDTFCTVLEYCEGNDLDFYLKQHKLMSEKEARSIVMQIVNALRYLNEIKPPIIHYDLKPGNILLVDGTACGEIKITDFGLSKIMDDDSYGVDGMDLTSQGAGTYWYLPPECFVVGKEPPKISNKVDVWSVGVIFFQCLYGRKPFGHNQSQQDILQENTILKATEVQFPVKPVVSSEAKAFIRRCLAYRKEDRFDVHQLANDPYLLPHMRRSNSSGNLHMAGLTASPTPPSSSIITY
- phosphorylation of histone H3 Ser10, immunoblot with anti-Ser10 H3 (histone H3 [2]): TAT-TL-MS-K retained the native kinase activity, as indicated by phosphorylation of histone H3 (data not shown)

B5: TAT-TL-MS-K: SEQ ID NO: 4, fusion protein with MT1-MMP cleavage site inserted 5′ to the kinase domain of TLK1B (protein)
chain: B4 chain
modifications: TAT-TL-MS-K fusion protein
- sensitivity to MT1-MMP cleavage (MT1-MMP catalytic domain): more sensitive to MT1-MMP cleavage than was TAT-TLK1B
- kinase activity (phosphorylation of histone H3 Ser-10) (histone H3 [3]): retained the native kinase activity
